Experimental data: patent US12636342B2, “TARS derived from Akkermansia muciniphila or fragment thereof, and use thereof” (KOREA RESEARCH INSTITUTE OF BIOSCIENCE AND BIOTECHNOLOGY, priority 2020, dated 2026)
Entries after “also recorded” stand apart in the source; their conditions may differ.

Experiments:
mouse adipocyte 3T3-L1 = assay: Immunoblot of insulin signaling in 3T3-L1 with PMA or TNF-α induced inflammation; assay type: cell-based; conditions: 0.5 μM AmTARS
Protocol: Next, to determine whether the anti-inflammatory function of AmTARS affected the regulation of metabolic disease-associated intracellular signaling, immunoblot analysis was performed using the mouse adipocyte 3T3-L1.
Specifically, 3T3-L1 cells were cultured in DMEM containing 10% bovine calf serum (BCS) and antibiotics under conditions of 5% CO2 and 37° C. The cells were treated with 2 μM phorbol 12-myristate 13-acetate (PMA) or 20 ng/ml TNF-α to create an inflammatory environment in the cultured cells. The cells were treated with 100 nM insulin and 0.5 μM AmTARS for 24 h, and then changes in intracellular signaling were investigated.

macrophages (F4/80+) = assay: Identification of cells targeted by injected AmTARS (flow cytometry of PECs, colon immunofluorescence); assay type: in vivo, mouse; conditions: Mac2 immunofluorescence, His-tagged AmTARS 0.2 mg kg-1, 1 day
Protocol: To identify the cells targeted by AmTARS, mice with injected i.p. with fluorescently labeled AmTARS, and fluorescence-positive cells in peritoneal exudate cells (PECs), were analyzed by flow cytometry. […] Next, we used a Mac-2 immunofluorescence antibody to test whether i.p.-injected AmTARS targets intestinal macrophages. Intense expression of Mac2 was detected in colonic epithelium, as well as in macrophages located in the lamina propria.

[1] = tested on: mouse macrophage Raw264.7; assay: Phosphorylation of signal transducers in LPS-treated Raw264.7; assay type: cell-based; conditions: Raw264.7, LPS, 0.5 to 3 hours
Protocol: To determine which signaling pathway was involved in the anti-inflammatory effect by the immune cytokine secretion regulation of […], an inflammatory environment was created through LPS treatment on mouse macrophage Raw264.7 as mouse-derived immune cells, and then changes in phosphorylation of signal transducers involved in the regulation of immune cytokine secretion according to the presence or absence of […] treatment and the elapsed time (0.5 to 3 hours) were investigated. Raw264.7 cells were cultured in DMEM (Hyclone) containing 10% FBS and antibiotics.

[2] = Aminoacylation reaction (malachite green phosphate assay); assay type: biochemical; conditions: L-threonine, ATP, 30 min, free Pi at 620 nm
Protocol: TARS is an […] involved in protein synthesis, and the domain and site involved in its function are well known. The constructed deletion mutants were confirmed to have deletions of parts irrelevant to the function, but the aminoacylation reaction experiment was conducted to determine whether the deletion mutants performed the intrinsic functions thereof appropriately.
Specifically, a 2× reaction solution (100 mM Tris-HCl (pH 7.5), 20 mM MgCl2, 200 mM NaCl, 200 mM KCl, 2 mM DTT, 500 μM ATP, and 5 mM L-threonine) was prepared, and 25 μL of a reaction solution, 20 μL of distilled water, and 5 μL of protein were added to make a final 50 μL volume, followed by incubation for 30 min. Thereafter, a reaction was conducted using a malachite green phosphate assay kit (Bioassay Systems) for 30 min, and the free monophosphate group (Pi) was measured at a wavelength of 620 nm.

[3] = tested on: Tg (NFκB:EGFP) zebrafish transgenic line; assay: NF-κB activity in DSS-treated Tg (NFκB:EGFP) zebrafish larvae; assay type: in vivo; conditions: yolk injection at 3 dpf, 0.5% DSS, analysis at 6 dpf
Protocol: (A-E) Global gene expression analysis. Total mRNA from BMDMs treated with either AmTARS (0.5 μM) or Pam3 (10 ng ml-1) for 1 or 3 h was isolated and analyzed by RNA sequencing (A). Principle components analysis (PCA) of the gene expression profiles for each sample (B). Hierarchical clustering of gene expression profiles from each sample identified cluster 3 and 4 (C). Gene set enrichment analysis (GSEA) of clusters 3 and 4 with respect to terms related to inflammation (D). […] (F) Overview of the experimental procedures for zebrafish. The yolk of Tg (NFκB:EGFP) transgenic zebrafish larvae (3 dpf) was injected with PBS or AmTARS. Injected larvae were treated at 3 and 5 dpf with 0.5% DSS for 24 h, with a washing period with fresh water for 24 h in between. Sample collection and analysis of Tg (NFκB:EGFP)-based EGFP intensity were conducted at 6 dpf. (G) Representative confocal images showing NF-κB signaling in the mid-distal intestines of PBS- or AmTARS-injected larvae with or without DSS treatment. White dashed lines denote the boundaries of the intestines (based on merged DIC bright field images). (H) Bar graph comparing the fluorescence intensity of the mid-distal intestines of PBS- or AmTARS-injected larvae treated (or not) with DSS (n=32 per PBS group and n=35 per DSS group). […] P-values were calculated by unpaired and two-tailed Student's t-test. […]

[4] = tested on: mouse bone marrow-derived macrophages (BMDMs); assay: ELISA of immune cytokine secretion in LPS-treated BMDMs (inflammatory environment); assay type: cell-based; conditions: LPS-induced inflammatory environment, 24 h
Protocol: To determine whether AmTARS affects immune cytokine secretion when cellular inflammation was induced, mouse bone marrow-derived macrophages BMDMs as mouse-derived immune cells and human macrophages THP1 as human-derived immune cells were cultured by way of the same method as in Example 2.
Specifically, the cultured BMDMs and THP1 were treated with lipopolysaccharide (LPS) to induce an inflammatory response and were simultaneously treated with AmTARS at 0.1 μM, 0.2 μM, and 0.5 μM for 24 h to obtain cell cultures. The obtained cell cultures were analyzed for immune cytokine secretion by way of the same method as in Example 2.
Next, BMDMs were treated with LPS to create an inflammatory environment by way of the same method as in Example 3, and then treated with each TARS (AmTARS, BfTARS, eTARS, and hTARS) to investigate the secretion of IL-10.
An inflammatory environment was created through LPS in BMDMs by way of the same method as in Example 3, and then the cells were treated with the four types of fragments, and the immune cytokine secretion was determined by ELISA.

phosphorylation of protein kinase B (AKT) (mouse adipocyte 3T3-L1; 3T3-L1, 100 nM insulin and 2 μM PMA, 24 h): again increased the phosphorylation
S6 kinase (S6K) (mouse adipocyte 3T3-L1; 3T3-L1, TNF-α, insulin): phosphorylated and activated
glycogen synthase kinase (GSK)-3β (mouse adipocyte 3T3-L1; 3T3-L1, TNF-α, insulin): phosphorylated and inhibited
insulin receptor substrate (IRS) (mouse adipocyte 3T3-L1; 3T3-L1, TNF-α, insulin): no significant change
extracellular signal-regulated kinase (ERK) [1]: not affected
B1: Akkermansia muciniphila-derived threonyl-tRNA synthetase (TARS) (protein)
chain: MSEHKERKTLEERQQMSDLERLRHSCAHVLATAICRLWPDAQLAGGPAVDNGFYYDVELDHRISTEDFERIEEEMKKVVKENQVFQKEVISRADAMKMAESGELGALGPRSEPSRFKIDLLNDIPEDEEISLYRNGDFTDLCAGPHVGRTGNCKAFKIMSVASAFYKGDKNRPMLQRIYGTCFPNRTQLDEHLERLEEARRRDHRKLGRELGLFCIDESVGQGLILWKPKGALIRRSLQDFITEELDKLGYSQVYTPNIGKLDLYRTSGHFPYYQESQYAPIPERDAMEKLSQEGASCAELFNGLATGTIEGYMLKPMNCPHHIKIYANDAHSYRDLPVRLAEFGTVYRWEQSGELGGMTRVRGFTQDDAHIFCTPDQLAGEIRQCLGIVKTIFGTLGMTDYRVRLSMRDPESDKYVGSPENWDKAEQALREAAEWLGADYSEEAGEAAFYGPKIDFIVRDAIGREWQLGTVQVDYNLPERFDLHYTGADNKPHRPVMVHRAPFGSMERFTGLLIEHFEGKFPTWLSPEQVRVLPISDKVTDVAAAHRTALAARGVRVTVDETPDKIGAKIRNARLDRVPYMLVLGQREAEDGTVSVRHRDKGDLGAMPFEQFADLVAREIAERHISPVI
modifications: Akkermansia muciniphila TARS
phosphorylation of AKT (mouse adipocyte 3T3-L1; 3T3-L1, insulin resistance induced by 20 ng/ml TNF-α, 100 nM insulin): increased the phosphorylation
co-localization of administered AmTARS (His) in the colon (macrophages (F4/80+)): co-localized mainly with macrophages in the lamina propria
phosphorylation of NF-kB [1]: distinctive differences in phosphorylation from a control from 2 h
phosphorylation of c-Jun N-terminal kinase (JNK) [1]: affected through the regulation of phosphorylation from 30 min
phosphorylation of p38 [1]: distinctive differences in phosphorylation from a control from 2 h
aminoacylation reaction / enzymatic activity [2]: an aminoacylation reaction was shown
NF-κB activity in the distal intestine induced by repeated DSS treatment [3]: significantly dampened
secretion of IL-6 [4]: suppressed; also recorded: reduced in a dose-dependent manner
secretion of IL-10 [4]: increased IL-10 levels; also recorded: increased in a dose-dependent manner; also recorded: increased in a protein concentration-dependent manner
secretion of TNF-α [4]: suppressed; also recorded: reduced in a dose-dependent manner
